Data: paper PMC7078472

What was measured:
Assay in all cases: MYTH (membrane yeast two-hybrid) quantitative β-Gal activity assay
[1] = biological target: TbATPc prey for MYTH (T. brucei ATP synthase subunit c without MTS, NubG-HA; identical to TcATPc); conditions: yeast strain NMY51, n = 3, 6 colonies for each independent experiment, read off a plot
[2] = biological target: T. cruzi MCU (TcMCU) bait for MYTH (Cub-LexA-VP16); conditions: yeast strain NMY51; n = 3; 6 colonies for each independent experiment; parent: est. 180; read off a plot
[3] = biological target: TbMCUd bait for MYTH (Cub-LexA-VP16); conditions: yeast strain NMY51; n = 3; 6 colonies for each independent experiment; parent: est. 180; read off a plot
[4] = biological target: TbMCU bait for MYTH (without MTS, SUC signal sequence, Cub-LexA-VP16); conditions: yeast strain NMY51; n = 3; 6 colonies for each independent experiment; parent: est. 140; read off a plot
[5] = biological target: TbMCUc bait for MYTH (Cub-LexA-VP16); conditions: yeast strain NMY51; n = 3; 6 colonies for each independent experiment; parent: est. 140; read off a plot
[6] = biological target: TbMCU bait for MYTH (without MTS, SUC signal sequence, Cub-LexA-VP16); conditions: yeast strain NMY51; n = 3; 6 colonies for each independent experiment; parent: est. 140; read off a plot; remark: listed apart in the source
[7] = biological target: TbATPc prey for MYTH (T. brucei ATP synthase subunit c without MTS, NubG-HA; identical to TcATPc); conditions: yeast strain NMY51; n = 3; 6 colonies for each independent experiment; parent: est. 150; read off a plot

Question: How did the response ([1]; parent: est. 180) turn out when “T. cruzi MCU (TcMCU) bait for MYTH (Cub-LexA-VP16)” was run?
Answer: 32 units

Question: “TbMCU bait for MYTH (without MTS, SUC signal sequence, Cub-LexA-VP16)” was tested. Which response ([1]; parent: est. 140) did it give?
Answer: 26 units

Question: Which response [2] does the source give for “TbATPc prey for MYTH (T. brucei ATP synthase subunit c without MTS, NubG-HA; identical to TcATPc) G64L; G66L; G68L; G70L” here?
Answer: 58 units

Question: And the response [3]?
Answer: 58 units

Question: What about the response [4] of the same substance?
Answer: 44 units

Question: What about the response [5] of the same substance?
Answer: 43 units

Question: And the response [6]?
Answer: 45 units

Question: How did the response ([1]; parent: est. 140) turn out when “TbMCU bait for MYTH (without MTS, SUC signal sequence, Cub-LexA-VP16) Q213A; V216P; I217P; F222A” was run?
Answer: 28 units

Question: And the response [7]?
Answer: 27 units

Question: Which response ([1]; parent: est. 180) does the source give for “T. cruzi MCU (TcMCU) bait for MYTH (Cub-LexA-VP16) Q208A; I211P; I212P; F217A” here?
Answer: 34 units

Question: “TbATPc prey for MYTH (T. brucei ATP synthase subunit c without MTS, NubG-HA; identical to TcATPc) F98L; E102A; F107L; F113L” was tested. Which response [6] did it give?
Answer: 88 units

Question: With “TbMCUd bait for MYTH (Cub-LexA-VP16) R123A; V126P; L127P; Y132A” as the substance, how does the response ([1]; parent: est. 180) read?
Answer: 34 units

Question: Which response [6] does the source give for “TbATPc prey for MYTH (T. brucei ATP synthase subunit c without MTS, NubG-HA; identical to TcATPc) F98L; F107L; F113L” here?
Answer: 130 units

Question: With “TbATPc prey for MYTH (T. brucei ATP synthase subunit c without MTS, NubG-HA; identical to TcATPc) G64A; G66A; G68A; G70A” as the substance, how does the response [6] read?
Answer: 69 units

Question: For “TbMCU bait for MYTH (without MTS, SUC signal sequence, Cub-LexA-VP16) Y235A; F236A; T241E; Y248A”, which response [7] is on record?
Answer: 120 units

Question: TbMCUd bait for MYTH (Cub-LexA-VP16) was tested. Which response ([1]; parent: est. 180) did it give?
Answer: 27 units

Question: For TbMCUc bait for MYTH (Cub-LexA-VP16), which response ([1]; parent: est. 140) is on record?
Answer: 29 units

Question: For “TbMCUc bait for MYTH (Cub-LexA-VP16) Q161A; V164P; L165P; F170A”, which response ([1]; parent: est. 140) is on record?
Answer: 30 units

Question: For “TbMCU bait for MYTH (without MTS, SUC signal sequence, Cub-LexA-VP16) V216P; I217P”, which response [7] is on record?
Answer: 34 units
